From the domain aggregation screens of Martell et al. (2025)

Assay: soluble fraction after stress (log2 fold change); higher = more stays soluble; pooled small domains, quantitative proteomics
Conditions: stress: 50 degC
In short: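 After stress at 50°C, the amount of each protein still soluble was measured. This was done on pooled custom libraries of small protein domains, using high-throughput quantitative proteomics. The figure given is a base-two log fold change and stands for aggregation propensity, with higher values meaning more protein stays in solution.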

Compared with “HMWSNTAVIDRIRQLHEEGQPISSQSVQVNHKSLYMAAIKRFRGWKRAVEAAGIDYRQIRLR”, “HMSGYFSDKKLNELFEQYLIMREKKGKPVVGYQLKILIDRLNQVAANTKEKIEVVSNAIAGDWNTFYPIKR” is higher in “soluble fraction (log2)” value: -1.92 for the first, -0.621 for the second.

First: HMGNRWENLISNKMIDDVDEELLRKYIAQAHDAGRIAISYTDRKTVLNQLELTDGDRLLNAGKVLFSD
Second: HMLDGFEVGMTVMRKPGTETGFTGWPPFADKDEFPVIERIDTSDSTLLLRFNDTSWWINASLVEPSDV
The “soluble fraction (log2)” value of the first is higher: -0.094 for the first, -1.33 for the second.

Compared with “HMTEDADIERRLTGILASAGWYRSLAVEVKEGIVYLDGATASGNHRDWAGSLAAKTEGVVAVVNRIEVQP”, “HMSTASPEELRQTPERRRLIEYLREHGGHGRTSEIAAALGIDDSTASRLLRRLADNGLIVRTQYGEYTLLQ” is higher in “soluble fraction (log2)” value: -0.238 for the first, 0.0183 for the second.

“HMTVGEKIQKYRKDLDLSQEELGQKLLVSRQTISLWEKDQTVPTIDNLIRLREIFGVSVDEILGF” and “HMNMVSGHLQVKKGYYYAVLSFYDSKNKRHVKYISTGLPEKGNKRKAEAELVKIRNAFEPPAE” are within 0.2 log units of each other in “soluble fraction (log2)” value: -0.409 for the first, -0.338 for the second.

Going from “HMNSTSGIAGVGYWINQYRKKKGMSPVDKKSPLVRRVYDWVQEQYDEGRITIISDAELTRQTELAMEA” to “HMDEETVALQKAIHSLPPKQQAVFNMRYYDEMSFREIADANETTESSAKANYHFAKAKIIEQMKR”, the “soluble fraction (log2)” value rises from -0.771 to 0.101.

First: HMTARPTLEKLKYMIHEAGITENSLKVIVATKGHYGLDADISTYSDDFITRWIIPNWTKIVQTISNNK
Second: HMAGPRRRLLDAAIDRAAERGLGDLSLRALAEELGTSHRMLSHHFGSKDGLWLAIVEEVERRQ
The “soluble fraction (log2)” value of the first is higher: -0.348 for the first, -0.952 for the second.

“HMDVFTAKTASHIQELREKLGQQAVFGRSDVQNALGLKATRSSALLREMAEHGIIEPVTGYGKGRYHFRS” and “HMRSVTLQTDREGDILYVDGKQIGVSPQRLELSYGVHTIRAERGEQHTEKELEVTETGGETVVTLGFG” are within 0.2 log units of each other in “soluble fraction (log2)” value: 0.225 for the first, 0.129 for the second.

Going from “HMKFTPPTLEQIKNEMLLKTDEYNADIQSDRFFTYYDSNGWMVGKNKMKKFLVSLVAVFAATSA” to “HMSRESNISTGRQLLEAQLPTWGYKKVEDIPSKQMKTALDAFNYKDVESLLQGLGEGSVALTTALRRLMP”, the “soluble fraction (log2)” value rises from -0.446 to 0.313.

Going from “HMKDYKSALQELIQSGDKRVISYHTLKETGPSHNREFEAAVKLDGNIILGVGKGKTKKEAEQNAAHEALKK” to “HMFTLDDLQATYDIFERAEQNSDAMLAFQKVITAEGLDFDLTSPQGIVDFFKGAAPTEIYDLYEAS”, the “soluble fraction (log2)” value falls from 0.172 to -0.403.

First: HMAGASQAVKAQLRLREMILAGELPGGARIAELTLVEKLGVSRTPIRAALMRLEQEGLLHRLPGGGYAVRT
Second: HMHEGNWTLPNPMPIGTTLTLPEHSRLYISNLAGQRVFETSATSVEIPLLPKGTYLLRLETMNGHTTRKIL
The “soluble fraction (log2)” value of the first is lower: -0.52 for the first, -0.0423 for the second.

Compared with “HMGGRRHANMSREEEAAFLAPFFEKAAQGGILVVREIRQALDAHLGRTVPLSTVYNLLHRHNWRKL”, “HMDKPVIEDVSFDDLAYMVGERVIIRTHLRSTRDGELKSFNRAGILVSLRNRPGMELEIPRSTVASAQVVW” is higher in “soluble fraction (log2)” value: -2.71 for the first, -2.45 for the second.

First: HMKKPANLISEDRMVEVLYDVIIINTAKGVNKQLLQNNINNPLNYIYRSHGIDSLQFAESNAYYTS
Second: HMGESEKTLELVSQKDALVDEAFFFVRFQALLESNKTKGAQDLLDQSNHLSAAKLLQANAYLDIV
The “soluble fraction (log2)” value of the first is lower: -0.371 for the first, 0.119 for the second.

Compared with “HMAKVDIPHEMVDQRIDEIVEEIKMNLESQNMSLDDYLKRMNQTEAQLRANYEATAAEQVRQGLV”, “HMISENFVEAKILLTEDNRPKSLEILKDIIRQHDKVYSPLSLFLILDEDLEENKEIILEYFDLVLS” is lower in “soluble fraction (log2)” value: 0.314 for the first, -0.185 for the second.

“HMTTEIVRMKKDVKIGQEITAKDIEVVEVGAYNLPDEVIRSSEEVVGKYVSSELLKGEYVLPSKISDTP” and “HMKLSALRDKIKEHLLRQIQNGELQVGKTINLAALSRVTGISVTPIREALTQLEQAQVIQAVPNRGFVVA” are within 0.2 log units of each other in “soluble fraction (log2)” value: 0.0729 for the first, 0.00526 for the second.

Going from “HMGIAERKEKQKLEIRNAILEASRKLIVEEGFEKVTMRKIADLIEYSPTTVYLYFKDKNEILFHLHQ” to “HMHMIDDYLARIGQLIRDARQHRGWTQVQLAEALGTSQSAVNRIERGNQNISLEMIARIGEALGSEIVSLG”, the “soluble fraction (log2)” value falls from -1.37 to -1.62.

“HMDGYTVYTNWGSDTNVARSDQQIQSQIPQLSGATIVGVWTKPIATGGTSYKIRYRTNSGAFTEIDVDQ” and “HMRSGEDESFSAGLLEYPHYTRPAEFEGHRIPDILTSGDHAKVDAWRQEMSEHITRERRPDLWEMYKKK” are within 0.2 log units of each other in “soluble fraction (log2)” value: -0.105 for the first, 0.0901 for the second.

“HMDFFVLVGAYKTPDEAETIRAKIAFSGLDSSVSHGNDGRYRVRIGPFHSEGDARKAQSTLRANDIPGQII” and “HMQAVKQIKVERGMTLEKIAQSEFGDSTRWGEIVEVNNLRAPYISDDPTETRDGVLKPGSNLLIPIP” are within 0.2 log units of each other in “soluble fraction (log2)” value: -0.0926 for the first, 0.094 for the second.

Compared with “HMRISLKAQVYEYLKQAIINGDLKVGEIYSEQYFADKLSISRTPVREAILQLQHENMVEVKANRGIIVK”, “HMKEQYDLNDREQQFISLVANGLNNKEIAETLFLSEGTVRNYLSNLLDKLGLRDRTQLAIFFYQHL” is lower in “soluble fraction (log2)” value: -0.472 for the first, -0.953 for the second.

Compared with “HMEKKPYGEMHNVMLTDEELEKLRHDYPAHFAEYIQRLSLHIDAKGARYKSHYAVIRKWLIADGVKA”, “HMHGLNQNKPIPIADIVNSVNNYLTSLGKKTITDNSVLSNLKKAAKYLNTAYNLVLRPDSLNMTVTLL” is higher in “soluble fraction (log2)” value: -0.679 for the first, 0.0467 for the second.

Going from “HMVTEKNALTIEIEDLTKRFGNQRESLLPILQEVQLKHGHISDFAQQEIARLLDIHPVEVYGVVTFFSFLS” to “HMDKLFNRQTLGGVELTQKQIEDLNAGKAIFVEGMQRKDGEVFSSYVKLDEATGRPSYTRYNPDSP”, the “soluble fraction (log2)” value rises from -2.21 to 0.441.

Compared with “HMGRMTRKDRALATDLYGRIVGNVDDFHEGRIDYETFSERQRGLWTTLDAAGPEVKRAVLADIRERL”, “HMYLGRKATLLSSISGEKMGNAEVLADGNLMSIYVKSLTGEPLSYGSTVLIIKHSEDQNFYLVQN” is lower in “soluble fraction (log2)” value: -0.187 for the first, -2.58 for the second.

“HMLWTDTKYVTVPDFVGKEPKEIESSYLYNIEYHGEGTKVISQQPAAFSRTIEGGTVRLYLG” and “HMVPEEEATKISVQNVGASDYNFTVKGVQANDPTLTLVRGKTYEFDVTSLGHPFWIKTQKVTGSSSQY” are within 0.2 log units of each other in “soluble fraction (log2)” value: 0.0884 for the first, 0.1 for the second.

Compared with “HMFDNPLSERDKEILNHISMGKSNKEIANQVGLAEQTIKNTISVILDKTFTSNRAQAASMATKNKW”, “HMIKRETNDNPVDPASLSLGDRVKILTLNQNGEIISLPDEKGLLQVQVGIMKIGVNVSDIMLI” is lower in “soluble fraction (log2)” value: 0.547 for the first, -0.0513 for the second.

First: HMASLSRRELEVLELLALRLTVKEVAERLVISELTAKRHTSNIYQKLGVNRRRDALAAAQARGLLGAR
Second: HMNATPDMERYWASSAAEGRALEPLYAVSRGDGGEPLWWSPSRAQAERMAREEGGPLTVDRIDPP
The “soluble fraction (log2)” value of the first is lower: -2.9 for the first, -0.0411 for the second.

“HMDADTVGQIRVVKQILDDGRLIVVDASGNPVLVRRSSALSLTAISQGDRIIVDPSVRLAIELLPNE” and “HMVFKSAQEGLDFYSKQLNDVDATLGRIRRGEESGNGLYGSNRVKNLEEQRKKLDSFVTAYRNAVNAT” are within 0.2 log units of each other in “soluble fraction (log2)” value: 0.185 for the first, 0.08 for the second.

Compared with “HMVLIQNEDVKDISNYPLLSSVPVFDVFNNKMIIPTFNKDSFNPLIYNFNFNSKRRLIYRVDNTNYLIVIK”, “HMWMTAQDFRNSSLPWSATTSYNEGQSVRVVDGSNTYYYIAIVKTQPGQSPTTHPTSWREVDA” is lower in “soluble fraction (log2)” value: 0.0177 for the first, -0.99 for the second.

Going from “HMNIVINVDTPTFEQMKATYQAPGTLPAGASFHAKLKGVTVTGYTKSHKVMFQGALANQEAARWQ” to “HMQRSVKNNDTVQVHYTGKLTNGQIFDSSIDKQPLEFQLGQGQIIPGFEKGLIDMTVSEKKTITIPEAEAY”, the “soluble fraction (log2)” value rises from -0.92 to 0.1.

Going from “HMPSSIEGIEKYLGSGMIRGIGAVYAKRLVKQFGKDVFDIIEETPERLREVEGIGPIRAARIISGWADQ” to “HMQNAETPDVAAEFRTWTSADGQFQVIAKLVKLDGESVHLERQDDGRQIAVPLGKLSSEDRLFLRGVRP”, the “soluble fraction (log2)” value rises from -0.41 to 0.0447.

Going from “HMSLPAYIKISEVIARRINAGQILAGDRLPNERTMAVEFGVAVGTLRKALYHLQVRGLVTRKHGSGNYINK” to “HMDTLRPLGRYQNVHLTKQELTALQSEFSDWSERIERLSSYMASTGRKYQNHAATIRLWAEKDK”, the “soluble fraction (log2)” value rises from -0.177 to 0.13.

Going from “HMSNSMISKDKAMSIALAKVSGATSSNIYIELEKDDGRYTYEGEINFNNKEYEFEIDAYTGNILKWEVDSI” to “HMSGKMTVPNVVGKTETEAKSALSAKGFTNVRTETVDSTEAAGTVVKQSLDADSVQDPKTEIVLSVSNG”, the “soluble fraction (log2)” value rises from -0.333 to 0.608.

Going from “HMSMEIQEIIRQLREKNDWSQEDMAERVGLSKNGYAKIERGETNLNLERLEQIANLFDLSVIDLIEMS” to “HMQQLDDDTVAYVADNGIAVKSKNGKELSVDTSGLSYDIIMDMFRNLPRNGDFFSSKYWSDNIQKAQAR”, the “soluble fraction (log2)” value rises from -0.796 to 0.41.

“HMQPQLFRVIADDGLNIRSGPGPEYPPVAPMLRKGTQVELLQAGDRWSKVEVVGSTDVEGWVNQRYLQAV” and “HMTNEWRKILSNLNGKYQIVMELFYVDGFSTKEIARMLHITEVNVRSRMVRGRKQLEQILTVR” are within 0.2 log units of each other in “soluble fraction (log2)” value: 0.0476 for the first, -0.15 for the second.

Going from “HMTTGREGLIGAVGTVRQAIAPEGYVFVEGELWRAKSPAGPLEPGTTVRVIAIDGLTLTVMPAE” to “HMEKPYTPPANLNEIQSYEELSKAVQYYNKVKDAATTDADRLKAQQSIDTLEDMRKAWDAASST”, the “soluble fraction (log2)” value rises from -0.348 to 0.072.

Going from “HMANIAVTIPTGSSGDRIADILLQAGLIKDKQDFNQAVIAAGAEGKLRAGYFVIPSNATPAEIISILT” to “HMDGIPVPDVKGTVEAEATATLKNSGFEVTKTQDFSDTVEAGKVISQNPAGGSSAASGSSVTLVISQGPN”, the “soluble fraction (log2)” value rises from -0.695 to 0.0569.

Compared with “HMGAAVEVISLRYRSAAELLPIVRSLLSTEGKISADERTNSLIIVDSDEAVARVIHSLATLDT”, “HMNLAISAYQQLKSDIIRGVYAPGEKLLMSRLKVRYGLGIGPMREALSQLVSEHLVTAASQRGYRVAGM” is lower in “soluble fraction (log2)” value: -0.125 for the first, -1.64 for the second.

“HMRTKEGLASQLEKIPGIGPVKRKALLKKFGSIDAIAAASKEELMLTDGITSSLADAIRDYF” and “HMGQARQSAIRELGNDPTSGKKITVRSGRYGPYVTDGEVNASLRKGDDPQTIDLDRAIELLAARREKLG” are within 0.2 log units of each other in “soluble fraction (log2)” value: 0.00122 for the first, 0.13 for the second.

First: HMLNERQKKIIKILKDNKNWMTGKELSEFLNVSDRTIRSDIEYINRYNNALIESNVKNGYHLNFE
Second: HMPRYQQIARQLKTAIEHGELKPGARLPSSRTWSQELGISRSTVESAYTELVAQGWLERRGQAGTFVSAQL
The “soluble fraction (log2)” value of the first is higher: 0.12 for the first, -0.749 for the second.

For “HMNVAVGNSKLVGVAGERAYFVNGVGAAARTLSLQVGDALPTGEKVRRIERDGVTMTGASGDVRLSVLP”, the “soluble fraction (log2)” value was 0.0813.
